T1: human FcγRIIb on cells (HEK293T cells transfected with human FcγRIIb cDNA; primary human B cells) (human, UniProt P31994 43-310)
T1 construct: whole, on cells; also called CD32b
T1 sequence (looked up): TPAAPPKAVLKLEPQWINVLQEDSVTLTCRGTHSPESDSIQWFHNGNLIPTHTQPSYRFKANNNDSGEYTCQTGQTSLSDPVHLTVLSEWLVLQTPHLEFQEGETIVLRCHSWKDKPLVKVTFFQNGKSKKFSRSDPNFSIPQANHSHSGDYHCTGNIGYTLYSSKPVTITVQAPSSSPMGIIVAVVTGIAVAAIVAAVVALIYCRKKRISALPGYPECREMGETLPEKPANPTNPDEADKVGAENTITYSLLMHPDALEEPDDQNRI

T2: human FcγRIIb receptor protein (R&D Systems) (human, UniProt P31994 46-217, limits assumed)
T2 construct: Bought
T2 sequence (looked up): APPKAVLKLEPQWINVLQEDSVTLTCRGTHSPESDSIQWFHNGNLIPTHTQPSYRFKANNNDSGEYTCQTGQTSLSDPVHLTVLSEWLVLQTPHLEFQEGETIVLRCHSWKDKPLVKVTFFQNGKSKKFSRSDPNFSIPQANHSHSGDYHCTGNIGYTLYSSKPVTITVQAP


Legend:
[1] = molecular target: T1, human FcγRIIb on cells (HEK293T cells …); assay: flow cytometry on HEK293T cells transfected with human FcγRIIb, PE anti-human Fab detection
[2] = molecular target: T2, human FcγRIIb receptor protein (R&D …); assay: Biacore SPR

| EC50 fold relative to WT IgG1 [1] [fold] | Kd [2] [nM] | fold relative to native IgG1 [2] [fold] | Binder |
| --- | --- | --- | --- |
| ~320 | – | – | anti-CD19 HuAM4G7 IgG1 S267E/L328F (antibody) chain 1: not shown chain 2: DIVMTQSPATLSLSPGERATLSCRSSKSLQNVNGNTYLYWFQQKPGQSPQLLIYRMSNLNSGVPDRFSGSGSGTEFTLTISSLEPEDFAVYYCMQHLEYPITFGAGTKLEIKRTVAAPSVFIFPPSDEQLKSGTASVVCLLNNFYPREAKVQWKVDNALQSGNSQESVTEQDSKDSTYSLSSTLTLSKADYEKHKVYACEVTHQGLSSPVTKSFNRGEC |
| – | 408 | 3.6 | anti-CD19 HuAM4G7 IgG1 S267A (antibody) chain 1: not shown chain 2: DIVMTQSPATLSLSPGERATLSCRSSKSLQNVNGNTYLYWFQQKPGQSPQLLIYRMSNLNSGVPDRFSGSGSGTEFTLTISSLEPEDFAVYYCMQHLEYPITFGAGTKLEIKRTVAAPSVFIFPPSDEQLKSGTASVVCLLNNFYPREAKVQWKVDNALQSGNSQESVTEQDSKDSTYSLSSTLTLSKADYEKHKVYACEVTHQGLSSPVTKSFNRGEC |
| – | 71.9 | 20.4 | anti-CD19 HuAM4G7 IgG1 S267E (antibody) chain 1: not shown chain 2: DIVMTQSPATLSLSPGERATLSCRSSKSLQNVNGNTYLYWFQQKPGQSPQLLIYRMSNLNSGVPDRFSGSGSGTEFTLTISSLEPEDFAVYYCMQHLEYPITFGAGTKLEIKRTVAAPSVFIFPPSDEQLKSGTASVVCLLNNFYPREAKVQWKVDNALQSGNSQESVTEQDSKDSTYSLSSTLTLSKADYEKHKVYACEVTHQGLSSPVTKSFNRGEC |
